Measured values from EP4371564A2.

Target: integrin molecules on human cells
Assay: cell-based or functional assay

B1: RGD-Hoc (SEQ ID NO: 19), P18056 1-376 (protein)
chain: CDCRGDCFCSAMTFTVDITPKTPTGVIDETKQFTATPSGQTGGGTITYAWSVDNVPQDGAEATFSYVLKGPAGQKTIKVVATNTLSEGGPETAEATTTITVKNKTQTTTLAVTPASPAAGVIGTPVQFTAALASQPDGASATYQWYVDDSQVGGETNSTFSYTPTTSGVKRIKCVAQVTATDYDALSVTSNEVSLTVNKKTMNPQVTLTPPSINVQQDASATFTANVTGAPEEAQITYSWKKDSSPVEGSTNVYTVDTSSVGSQTIEVTATVTAADYNPVTVTKTGNVTVTAKVAPEPEGELPYVHPLPHRSSAYIWCGWWVMDEIQKMTEEGKDWKTDDPDSKYYLHRYTLQKMMKDYPEVDVQESRNGYIIHKTALETGIIYTYPKLAAALEHHHHHH
Q: How did the luciferase activity turn out when B1 was run?
A: 5 fold
